Reference: paper PMC4002121, “Trimethylation of Histone H3 Lysine 36 by Human Methyltransferase PRDM9 Protein” (The Journal of Biological Chemistry, 2014)

Tests used:
Experiment in all cases: purified protein, by the assay type
Conditions in all cases: other: apparent Km of the peptide, AdoMet saturating 448 μM, 1 nM PRDM9, 10 mM Tris-HCl pH 8.5, 0.01% Triton X-100, 10 mM DTT, 20 min, 23 °C, mean ± S.D., n = 3, NA = not active
[1] = substrate: CC(C)[C@H](NC(=O)CNC(=O)CNC(=O)[C@@H](NC(=O)[C@H](C)NC(=O)[C@@H]1CCCN1C(=O)[C@H](C)NC(=O)[C@H](CO)NC(=O)[C@H](CCCCN)NC(=O)[C@H](CCCNC(=N)N)NC(=O)[C@H](C)NC(=O)[C@H](C)NC(=O)[C@H](CCCCN)NC(=O)[C@@H](NC(=O)[C@H](C)N)[C@@H](C)O)[C@@H](C)O)C(=O)N[C@@H](CCCCN)C(=O)N[C@@H](CCCCN)C(=O)N1CCC[C@H]1C(=O)N[C@@H](Cc1c[nH]cn1)C(=O)N[C@@H](CCCNC(=N)N)C(=O)N[C@@H](Cc1ccc(O)cc1)C(=O)N[C@@H](CCCNC(=N)N)C(=O)N1CCC[C@H]1C(=O)NCC(=O)O
Description: (§1) To avoid the binding capacity limitation of scintillation proximity assay plates, a membrane-based assay was used for all kinetic studies. […] Apparent Km values were determined for AdoMet in reactions with each peptide by varying the AdoMet concentration. The highest concentration of AdoMet was 448 μM (5 μM [^3H]AdoMet plus 443 μM cold AdoMet). Dilutions of AdoMet were then made with assay buffer. The peptide concentration was kept at 5 μM. The assay buffer was 10 mM Tris-HCl, pH 8.5, 0.01% Triton X-100, and 10 mM DTT in a final volume of 20 μl. The reactions were started by addition of 1 nM PRDM9. The reaction mixtures were incubated for 20 min at 23 °C and quenched by adding 20 μl of 7.5 M guanidinium hydrochloride. 10 μl of quenched reaction mixture was spotted onto streptavidin-coated membrane squares (SAM2® Biotin capture membrane, Promega). The membrane was washed three times in 2 M NaCl for 2 min each time, then in water three times for 30 s each. The membrane was dried at 50 °C for 1 h and then each spotted square was cut from the membrane and placed in a scintillation vial. The amount of methylated peptide was quantified by tracing the radioactivity (cpm) as counted by a TriCarb liquid scintillation counter (PerkinElmer Life Sciences).

[2] = substrate: CNCCCC[C@H](NC(=O)[C@@H](NC(=O)CNC(=O)CNC(=O)[C@@H](NC(=O)[C@H](C)NC(=O)[C@@H]1CCCN1C(=O)[C@H](C)NC(=O)[C@H](CO)NC(=O)[C@H](CCCCN)NC(=O)[C@H](CCCNC(=N)N)NC(=O)[C@H](C)NC(=O)[C@H](C)NC(=O)[C@H](CCCCN)NC(=O)[C@@H](NC(=O)[C@H](C)N)[C@@H](C)O)[C@@H](C)O)C(C)C)C(=O)N[C@@H](CCCCN)C(=O)N1CCC[C@H]1C(=O)N[C@@H](Cc1c[nH]cn1)C(=O)N[C@@H](CCCNC(=N)N)C(=O)N[C@@H](Cc1ccc(O)cc1)C(=O)N[C@@H](CCCNC(=N)N)C(=O)N1CCC[C@H]1C(=O)NCC(=O)O
Description: as §1

[3] = substrate: CC(C)[C@H](NC(=O)CNC(=O)CNC(=O)[C@@H](NC(=O)[C@H](C)NC(=O)[C@@H]1CCCN1C(=O)[C@H](C)NC(=O)[C@H](CO)NC(=O)[C@H](CCCCN)NC(=O)[C@H](CCCNC(=N)N)NC(=O)[C@H](C)NC(=O)[C@H](C)NC(=O)[C@H](CCCCN)NC(=O)[C@@H](NC(=O)[C@H](C)N)[C@@H](C)O)[C@@H](C)O)C(=O)N[C@@H](CCCCN(C)C)C(=O)N[C@@H](CCCCN)C(=O)N1CCC[C@H]1C(=O)N[C@@H](Cc1c[nH]cn1)C(=O)N[C@@H](CCCNC(=N)N)C(=O)N[C@@H](Cc1ccc(O)cc1)C(=O)N[C@@H](CCCNC(=N)N)C(=O)N1CCC[C@H]1C(=O)NCC(=O)O
Description: as §1

[4] = substrate: CC(C)C[C@H](NC(=O)[C@H](CCC(N)=O)NC(=O)[C@H](CCCCN)NC(=O)[C@H](CCCNC(=N)N)NC(=O)[C@@H]1CCCN1C(=O)[C@H](C)NC(=O)[C@H](CCCCN)NC(=O)CNC(=O)CNC(=O)[C@@H](NC(=O)[C@H](CO)NC(=O)[C@H](CCCCN)NC(=O)[C@H](CCCNC(=N)N)NC(=O)[C@H](C)NC(=O)[C@@H](NC(=O)[C@H](CCC(N)=O)NC(=O)[C@H](CCCCN(C)C)NC(=O)[C@@H](NC(=O)[C@H](CCCNC(=N)N)NC(=O)[C@H](C)N)[C@@H](C)O)[C@@H](C)O)[C@@H](C)O)C(=O)N[C@@H](C)C(=O)N[C@H](C(=O)N[C@@H](CCCCN)C(=O)N[C@@H](C)C(=O)N[C@@H](C)C(=O)O)[C@@H](C)O
Description: as §1

[5] = substrate: CNCCCC[C@H](NC(=O)[C@@H](NC(=O)[C@H](CCCNC(=N)N)NC(=O)[C@H](C)N)[C@@H](C)O)C(=O)N[C@@H](CCC(N)=O)C(=O)N[C@H](C(=O)N[C@@H](C)C(=O)N[C@@H](CCCNC(=N)N)C(=O)N[C@@H](CCCCN)C(=O)N[C@@H](CO)C(=O)N[C@H](C(=O)NCC(=O)NCC(=O)N[C@@H](CCCCN)C(=O)N[C@@H](C)C(=O)N1CCC[C@H]1C(=O)N[C@@H](CCCNC(=N)N)C(=O)N[C@@H](CCCCN)C(=O)N[C@@H](CCC(N)=O)C(=O)N[C@@H](CC(C)C)C(=O)N[C@@H](C)C(=O)N[C@H](C(=O)N[C@@H](CCCCN)C(=O)N[C@@H](C)C(=O)N[C@@H](C)C(=O)O)[C@@H](C)O)[C@@H](C)O)[C@@H](C)O
Description: as §1

B1: PRDM9 (Homo sapiens) (protein)
chain: SEPQDDDYLYCEMCQNFFIDSCAAHGPPTFVKDSAVDKGHPNRSALSLPPGLRIGPSGIPQAGLGVWNEASDLPLGLHFGPYEGRITEDEEAANNGYSWLITKGRNCYEYVDGKDKSWANWMRYVNCARDDEEQNLVAFQYHRQIFYRTCRVIRPGCELLVWYGDEYGQELGIKWGSKWKKELMAGREPKP
Km [1]: 1.5 ± 0.2 µM
Km [2]: 2.4 ± 0.4 µM
Km [3]: 2.5 ± 0.3 µM
Km [4]: 3 ± 1 µM
Km [5]: 1 ± 0.2 µM
